From publication PMC12206513 (Molecular Biology of the Cell, 2025)
Residue numbers refer to the chain shown, from its start.

B1: YPet-Tail N3 (domain or fragment, Xenopus, UniProt P79955 2-79, looked up)
chain: DSTDKKVQVASRLPVPPKRKYVSNDENQEQMQRKRLRSSLESELPAVRVAASIATSKPRAAPVAALPKPQVIGRQSLA
B2: YPet-Tail C2 (domain or fragment, Xenopus, UniProt P79955 62-120, looked up)
chain: APVAALPKPQVIGRQSLAVMRPKNSGPGITSTSFSGKTKVSSSVTQPAAIGAEKKKRAA
B3: YPet-Tail N3-MBD1^mut (domain or fragment)
chain: B1 chain with K18A, R19A, K20A, R33A, K34A, R35A

Columns and labels:
[1] = biological target: His6-importin α-CyPet / S-His6-importin β (UniProt P52292); assay: FRET or BRET
[2] = biological target: 6HisGFP-XCTK2-MBD2^mut (Xenopus) (UniProt P79955); assay: co-sedimentation
[3] = biological target: GFP-XCTK2 (full-length, wild type) (Xenopus) (UniProt P79955); assay: co-sedimentation
Sequence of GFP-XCTK2 (full-length, wild type) (Xenopus) (P79955 whole entry): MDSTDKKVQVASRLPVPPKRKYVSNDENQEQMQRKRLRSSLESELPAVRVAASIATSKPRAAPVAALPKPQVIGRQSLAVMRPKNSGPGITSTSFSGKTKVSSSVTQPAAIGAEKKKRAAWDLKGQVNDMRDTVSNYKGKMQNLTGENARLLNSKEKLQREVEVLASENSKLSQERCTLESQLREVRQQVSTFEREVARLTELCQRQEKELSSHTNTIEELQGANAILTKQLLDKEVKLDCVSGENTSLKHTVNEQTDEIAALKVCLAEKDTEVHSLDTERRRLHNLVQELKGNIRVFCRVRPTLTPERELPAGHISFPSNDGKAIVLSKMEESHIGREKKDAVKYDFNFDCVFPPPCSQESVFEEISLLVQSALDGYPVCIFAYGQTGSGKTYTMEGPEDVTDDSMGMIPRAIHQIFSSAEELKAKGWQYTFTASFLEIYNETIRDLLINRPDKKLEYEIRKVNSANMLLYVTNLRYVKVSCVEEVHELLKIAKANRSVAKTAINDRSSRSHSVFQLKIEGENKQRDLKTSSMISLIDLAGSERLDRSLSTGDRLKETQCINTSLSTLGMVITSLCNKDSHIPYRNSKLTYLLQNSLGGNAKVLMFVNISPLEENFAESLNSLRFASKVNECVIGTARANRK

[4] = biological target: doubly stabilized microtubules (GMPCPP and paclitaxel) polymerized from cycled bovine tubulin (bovine, UniProt Q6B856 1-445); assay: co-sedimentation

Molecule	fold higher apparent Kd than YPet-Tail [1]	stoichiometry N [4]	also measured
YPet-Tail C2 (from UniProt P79955 62-120) (domain or fragment)	8 fold	–	–
YPet-Tail C3 (from UniProt P79955 80-120) (domain or fragment)	8 fold	–	–
importin α-His6 / S-His6-importin β (from UniProt P52292 1-529; Q14974 1-876) (complex)	–	–	percent reduction of MT binding by 0.4 µM importin α/β [2]: 43%; percent reduction of MT binding by 0.4 µM importin α/β [3]: 64%
B1	–	1.1 per tubulin dimer	fold higher apparent MT affinity than YPet-Tail C2 [4]: ~2 fold
B2	–	1.1 per tubulin dimer	–
B3	–	–	fold higher Kd than YPet-Tail N3 [4]: 10 fold
